The nature of this data set: soluble on expression in E. coli; label from the status in PepcDB or PDB records.
As to “MNQEVTAPKEMNQGASNDLLTTSLKNVTRLNTNDPSQMAVLTSQTIWAATHKENQPGAVILVPASEWQLGIASADFIHHPNNGPILFIEKEKIPEMTLKEIKRLNPIGTKDGTQIMVMGDVGTSALEQLKGYKVKQIKETDPAIFAKDVDKEYADITGSYPNSVIIGSSAEEGRLYTTPAVNWISHMPEPLLYTEKNKVPEATIEALKMRKDKANIYVLGPEKIVSKEVEKELSKYGKVTRISGETPTENSIAFAKFKDEKTKFGWGFTKPGHGLSFVSSKTPDLAVAGAPFSHMGKHAPVVLLEEGKASQTVYDFLASIQPKFKDDPTLGPYNHGFLLGNTSDISFETQGILDERLEIVQESGQGHGGH”, the “soluble on expression in E. coli” value was “not soluble”. To “MNQNKSNVPVSVAEEPDELSYYRLTLLSFLRESHPDLADDESFVATRSEQAAEAFSAAVRSGLTYDDAAQQANALLFQGLHFSPLDTLVTVLWNEFAAEVPEGSARSVALQLLPECRKVFAGYTLSDDFMFSPEFGQLYDELTGTVVIWLEENGL” belongs “not soluble”; to “MNREEMTLLGFEIVAYAGDARSKLLEALKAAENGDFAKADSLVVEAGSCIAEAHSSQTGMLAREASGEELPYSVTMMHGQLHLMTTILLKDVIHHLIELYKRGAK”, “soluble”. For “MNREKLMKMANTVRTGGKGTVRRKKKAVHKTTTTDDKRLQSTLKRVGVNSIPAIEEVNIFKDDVVIQFINPKVQASIAANTWVVSGTPQTKKLQDILPQIISQLGPDNLDNLKKLAEQFQKQAPGAGDVPATIQEEDDDDDVPDLVVGETFETPATEEAPKAAAS”, the “soluble on expression in E. coli” value is “soluble”. With “MNRLKNMSKYSDAKELASLTLGKKTEYANQYDPSLLQPVPRSLNRNDLHLSATLPFQGCDIWTLYELSWLNQKGLPQVAIGEVSIPATSANLIESKSFKLYLNSYNQTRFASWDEVQTRLVHDLSACAGETVTVNVKSLNEYTAEPIVTMQGECIDDQDIEIANYEFDDALLQGAAQGEEVSEVLHSHLLKSNCLITNQPDWGSVEIAYHGAKMNREALLRYLVSFREHNEFHEQCVERIFTDIMRYCQPQSLTVYARYTRRGGLDINPFRSSHQSAPNHNQRMARQ”, the “soluble on expression in E. coli” value was “soluble”. As for “MNRLLNEKVEEFKKGVLKAGWFIEKMFRNSISSLVERNESLAREVIADEEVVDQMEVEIQEKAMEVLGLFSPIGKPLLTVTAGIRVAELIENIADKCHDIAKNVLELMEEPPLKPLEDIPAMANQTSEMLKFALRMFADVNVEKSFEVCRMDSKVDDLYEKVREELLLYMMESPKYVKRALLLLEIAGNIEIIADYATNIVEVSVYMVQGEAYKCYHDELLLFKKSGGVLFESSD”, the “soluble on expression in E. coli” value was “soluble”.

On to “MNRQLLLDVLPAPAPALNNYIAGPNGQALAAAHALTAGRAIYLWGPAGCGRTHLLRGLSARPEAIYIDAARAAQSLRELAEADSTAPMPRLVAVDDVHRMDDARQAGLFALYNRWRESAATGRAFALAVSGDRAPMSLPLREDLRTRLGWDLVFRLDPLSDADKLAALTAQAAERGLQLAPEVINWMLTHHERDIRKLAALLDALDRYSLATGRPITIPLLRAMLADPHSQATLEHHHHHH”, for which the “soluble on expression in E. coli” value was “soluble”. Consider “MNRQPIVQLSNLSWTFREGETRRQVLDHITFDFEPGEFVALLGQSGSGKSTLLNLISGIEKPTTGDVTINGFAITQKTERDRTLFRRDQIGIVFQFFNLIPTLTVLENITLPQELAGVSQRKAAVVARDLLEKVGMADRERTFPDKLSGGEQQRVAISRALAHNPMLVLADEPTGNLDSDTGDKVLDVLLDLTRQAGKTLIMATHSPSMTQHADRVVNLQGGRLIPAVNRENQTDQPASTILLPTSYE”, for which the “soluble on expression in E. coli” value is on record as “not soluble”. Consider “MNRSNQDITQPTAIIAVVGVGAEQGIGAAVCRRFAQEKFKVYVAGRTLNKVEKVAAAIHRQGGQAVAYVLDAENEQQLQTLFDHLNDQPEALAAVIHNVGGNIPSIFLQSSLKFFSQMWRSTFLSSVLVAQRSLSIFQKQQQGTLIFTGASASLRGKPFFAAFSMGKSALRSYALNLAELYRSQNIHVAHVMVDGMVDGDRVNKALWGLGRLARLTRGTGGLNIDAIAENYWMLYQQNVDLWTHELDLRPYQEKF”, for which the “soluble on expression in E. coli” value was “not soluble”.

As to “MNRVKYTIKCTILQGKIKERLIKNIHLNEMNLRNWSTLKWSTRV”, the “soluble on expression in E. coli” value is “not soluble”. With “MNSFKTRDVQVAVEAVEKEKIEFIPLRRTLRYLIVGIDPGATTAIAALDLRGELVDMKSRKGWSPAEVIEFISSLGKPVVVSTDKSSPPEFVSKIRASFNAVLYTPKEDMSVEKKRILTSKYSTSNDLEHHHHHH” the entry was “not soluble”; with “MNSLFVDNTVFITRLKAGHIGRLVQALFEEWHGFEPWSSVDKIHAYYGRCLKDDELPLAFAAVDDSGILLGSAAVKRHDMESFPRYEYWLGDVFVLPEYRGKGIGRRLVAHCIGAARSLGIKFLYLYTPDVQIFYESFGWVVVGRHFHNGEWVTVMRLDVDKV”, “not soluble”; with “MNSNSLSRFTSIVRTTSIRGFHDRSSVPRVVDDREKSSAKYNDAGYTFRYHQQGVDPLPRIPDCKVPVARPAYKVRDQWSDEAARFGQNDYIDLLGDGSVHPAQLQYHTPTWLRGFPGQHKANELIKLIHYRNLYDAKLKQNSPKRWHELRKRIKYLMMQHNYNKQDEIGRERNLGLWEEEPDYTYKDKSRRSFKDEIH”, “not soluble”. With “MNSPFAAETLLFERSRPRPEALRVIYGFPNTYSVGITSLGYQLVWAQLASRADVAVSRLFTDVQEPLPRDPELVGFSFSWELDYGNLLVLLEQLGIPIWQRDRHDCHPLVFGGGPVLTANPEPFADFFDVILLGDAEPLLDPFLTTMAQVRTAARSQRLEALAHVPGIYVPSLYHVSYSHPTGPIQRIEPIKASVPPTVTKQVHRGHTLAASTVVTPLAAWENIYMVEVVRSCPELCRFCLASYLTLPFRTPSLETLIPAIERGLAVTDRLGLLGASITQHPEFPALIEHLGQPQFDHVRVSLASVRTNTVTESLAQLLSQRGSQSLTIAIETGSERLRQVINKKLETEEILAAASHAQAGGLKGLKFYGMVGLPTETDADVAATVDLFCQLKKTAPRLRLTLGCSTFVPKAHTPFQWWGVQPVAEKRLKFLKKELAKLGIEFRPESYNDSLIQALISRGDRRLAPLLEQVRHYGTSLGSYRRAFKERQGQLPDFEAYVNANWPEETVLPWQHLQSGLPTKTLENHLKRAIALEHHHHHH” the entry was “not soluble”; with “MNSSILLEVFKNAFSSIAEEMGLVLQRTAFSPNIKERRDFSCAVFDKEGNLVAQAAHIPVHLGSMPLSVKEAIKAFKGEFEEGDMVVLNDPYMGGTHLPDITLVAPFFYKGELLFFLANRAHHADVGGATPGSMPLSTSIFQEGFIIPPLKLMKRGELNEDFMKVFLRNVRTPEEREGDFKAQIMANITGIKRLRELIEREGIEKVLFFSKELMNYSERIIRERIKALPEGEYEFEDYMEDDGYGRKDVKIHLKLKVEKEKLIFDFSKSDDQTRGGINAVRAITLSAVYYAVISLLGSDIPVNEGCFRPLEVITRKGSVVDAEFPAGVAGGNVETSQRIVDVVLGAFSKAIPEKVPAASQGTMNHVTIGGINPENGEPFTYYETIGGGMGASAKGDGESAVHSHMTNTLNTPIEALEHYYPILVTEYSIRKGSGGEGMHRGGDGIVREYEFLTDVEVTVLSERRRLAPYGLFGGKPGMPGINLIKTEEGEKEMPSKFSVYLKKGDRLRVETPGGGGYMKEE”, “not soluble”; with “MNTQSPPSPHDPHGAAALPFRLWTAEERRASLDTALREWRDGEDVWVYGYGSLIWRPDFDFVERRLATLHGHHRALCLWSRVNRGTPECPGLVFGLDRGGSCRGVVYRLAGRQVPDYFPALWDREMSTGAYLPRWLRCATEHGPVNALVFIMNRANPAYIRALPEPELLAIVRRASGRYGPCTEYVVQTAQALRQAGIRDARLEQIARQLEADVHPLGVLEHHHHHH”, “not soluble”. To “MNTREVELRGHIIDSLILPRALDIIMDMGGDFQILEIDIGKRKSDPSHARILVEAETPSLLNQILDELGEIGASIAEIKEAELRRAPMDRVLPDDFYSTTNHQTFIYHGGEWVEVEGIEMDCMIVVDPESRTARCKPIREIKKGDLVVVGREGIKVVPPERPRGKQGVFEFMGSEVSSEKPLVTTIKKIASEITEIKKRGGRIGLVGGPAIVHTGSAPVIAEMIRLGFIDVLFAGNALATHDIECALYGTSLGVDIDRGEAVSRGHRHHINAINEINRAGSIRDAVEQGVLTSGIMYECVKNDVPFVLAGSIRDDGPLPDVITDVMEAQNEMRKYVQDLDMVIMIATMLHSIATGNILPSRVKTICVDINPATVTKLSDRGSSQAVSVVTDVGAFIPILLHEIKKMNGLGDLEHHHHHH” belongs “soluble”; to “MNTRSSLSEEQREQLVGLCEQDLDFTTTASRIGGRHTLARSLYHCWLLHGRLCLVEKPTKKHYSFEIKKEVVDRFLAGETRMNLAKEFKLSSPQQVKDWVSKWHKRR”, “not soluble”. Regarding “MNTRTWFVLLCLALPLVSLQAQPHPQTEQTSPALSEHTEMDHTEMNHTEMDHTEMDHTEMDHTEMDHTQMDHTQMDHTQMDHAIHGATTQFAGDGSLPPPSAAALAAAFPPLRHRAAHAPPLVSLVRIDRLETWNADPGRGHAWATQAWIGSDIQRLWLRSQGECYGGRCQSVAVEMLYGHDISPWWDALIGARRDVQPDGRTWAALGVQGVAPYKFESAAFLYLSGAAMRLMVETKYDLLLSQRLILQPSLQATAGLTRDRDLGAGPQTLQVGIRMRYQITRRVAPYVGWEREYGYGESGRQARARGTSDHEKRWVAGIRCWFLEHHHHHH”, the “soluble on expression in E. coli” value is “soluble”.

Consider “MNTSEHEREHDHVIEVTDLRRVYGGDFEAVRGITFSVERGELFALLGTNGAGKTSTVELLEGLAAPSGGRVRVLGHDPYEERAAVRPRTGVMLQEGGFPSELTVAETVRMWAGCTSGARPVGEALSLVGLERRPDVRVKQLSGGERRRLDLALALLGRPEVLFLDEPTTGLDAEGRQETWELVRELRDGGTTVLLTTHYLEEAEGLADRLAILHEGRIATAGTPAEVTAAQPSRISFDLPDGYFLGDLPPLADLGVSTHETTGRTVRLRTHELQRTATALLLWAQRAQVELRGLDVRSASLEEAFLRIAREAAGDRPGRPGRTDVSGTTASGKEAVALEHHHHHH”, for which the “soluble on expression in E. coli” value is reported as “soluble”.

Consider “MNVGDRVRVTSSVVVYHHPEHKKTAFDLQGMEGEVAAVLTEWQGRPISANLPVLVKFEQRFKAHFRPDEVTLIED”, for which the “soluble on expression in E. coli” value is listed as “soluble”.

Take “MNVLGRITAMPDLPEPLEGLKEIAYNLWWSWNPEAAELFQELDPALWKRFRGNPVKLLLELDPARLEALSASGYAARVQATREALRAYLEARRTKRGPLVAYFSAEYGFHSSLPIYAGGLGVLAGDHVKAASDLGLNLVGVGLFYHEGYFHQRLSPEGEQVEVYEPLRPEELPLVPVQDAEGRPVRVAVEFPGRLVHVGGYRVQVGAVPVYLLTTDLPENAPEDRQITARLYAAGLEARIQQELVLGLGGVRFLRALGLAPAFFHMNEGHSAFLGLERLRELVAEGYPFREALELARASALFTTHTPVPAGHDVFPLDLVDRYLGGFWEKLGVDRDTFLGLGLEEKPWGPVFSMSNLALRTAAQANGVSRLHGEVSRNMFRHLWPGLLAEEVPIGHVTNGVHTWTFLHPRLRRHYAEVFGPEWVERPEDPETWRVEGLGEAFWRIRQDLKLFLVREVRQRLYEQRRRNGEGPARLREAEKALDPEALTIGFARRFATYKRAVLLFKDPERLLRILKGPYPVQFVFAGKAHPKDEAGKAYLQELVSKIREYGLEDRMVVLEDYDMYLARVLTHGSDVWLNTPRRPMEASGTSGMKAALNGALNLSVLDGWWAEAYNGKNGFAIGDERVYESEEAQDVADAQALYDLLESEVIPLFYAKGLEGYSSGWMSMVHESLRTVGPYFSAGRMVRDYLALYERGALWEKEARARLEALKAFAEALSAFHALGVRPEVPGDLTLNGGRLEVGSVLEGEVPEGLRPHLRVQLVVRRLGGGLEVVDLEEVAPGRYRTAFRPTRPGSYTYGLRLALLHPVTGRVEWVRWA”: the “soluble on expression in E. coli” value was “soluble”.

Values taken from the DeepSol protein solubility set.
